Laboratory results as given in patent publication US20220211858A1, “TUBULAR SUPRAMOLECULAR POLYMERS” (priority 2019, published 2022).
Entries after “also recorded” stand apart in the source; their conditions may differ.

Key:
[1] = system: U87 MG human brain cancer cells; details: 48 h incubation, SRB, CPT concentration
Experimental: The human brain cancer cell line U87 MG was a generous gift from Dr. Wirtz (ChemBE, JHU). DMEM (Invitrogen) containing 10% fetal bovine serum (FBS, Invitrogen) and 1% antibiotics (Invitrogen) was used for the culture of the U87 MG cells. Cancer cells were incubated at 37° C. in a humidified incubator (Oasis, Caron, Marietta, Ohio, USA) with an atmosphere of 5% CO2. […] U87 MG cells were seeded onto 96-well plates (5000 cells/well) and allowed to attach overnight. […] The stock solutions were then diluted with fresh medium to achieve final CPT concentrations of 0.1, 1, 10, 100, 500, 1000, 5000 and 10000 nM. After dilution, the nanotube-containing media were used to incubate cells immediately. Medium containing the same concentration of free CPT ranging from 0.1 to 10000 nM was also used to incubate the cells, with non-treated cells (solvent only) as the control group. In addition, irinotecan at the concentration of 0.1, 1, 5, 10, 50, 100 and 500 μM was employed as a second control. After 48 h incubation, the cell viability was evaluated using the SRB method according to the manufacturer's protocols (TOX-6, Sigma, St. Louis, Mo.).

[2] = Physical stability of TT 1 nanotubes upon dilution in cell medium (CD); assay type: physicochemical
Experimental: The stability of non-ionic TT 1 nanotubes upon dilution in cell medium was evaluated by recording the CD spectrum for a series of prepared dilutions. […] A stock solution of TT 1 nanotube was prepared at a concentration of 1 mM in water and aged overnight. The aged solution was then diluted to 200 μM with cell medium. Further dilutions of the 200 μM TT 1 nanotube in cell medium were prepared at 100 μM, 50 μM, 25 μM, 10 μM, and 5 μM concentration. All diluted solutions were incubated for an additional two days before CD measurements were made. All the CD spectra were recorded from 300 to 440 nm using a 1 mm (for 200 μM, 100 μM, and 50 μM) or 10 mm (for 25 μM, 10 μM, and 5 μM) path length quartz cell. The spectra were collected and normalized from ellipticity (mdeg) to molar ellipticity (deg·cm^2·dmol^−1).

[3] = Biodistribution study in U87 MG tumor-bearing mice; assay type: in vivo, nude mice
Experimental: Mice bearing subcutaneous tumors were established by injecting 100 μL of a U87 MG suspension in serum-free medium (2×10^6 cells) into the right flank of the mice. When the tumor reached a size of −200 mm^3, the mice were randomly grouped and received one of the following 3 treatments via intravenous injection (n=18 for each group): free CPT (4.5 mg/kg), TT 1 (4.5 mg/kg), and TT 1 (15 mg/kg). Three mice from each group were euthanized at pre-determined time points (1, 2, 4, 8, 12, and 24 h). Plasma, major organs, and tumors were collected and stored at −80° C. for further analysis. To determine the amount of free CPT and TT 1 in the samples, 100 mg tumors were mixed with 900 μL acetonitrile (containing 0.1% TFA) and then homogenized using Precellys Evolution Super Homogenizer (Bertin Technologies, France) for 3×40 s (5,600 shakes/min). The resulting suspensions were centrifuged and the supernatants were collected. For plasma, 50 μL of sample was mixed with 450 μL acetonitrile (containing 0.1% TFA) and sonicated for 1 min. The supernatants were collected using centrifugation. All samples were filtered through a 0.22 μm membrane before analysis by a UPLC system (Waters ACQuity™ Ultra Performance LC) equipped with a reverse-phase column (ACQuity UPLC@BEH, C18, 1.7 μm 2.1×150 mm) and a fluorescence detector (ACQuity FLR, Ex/Em=362/430 nm). The column was flushed with a mixture of water (0.1% TFA) and acetonitrile (0.1% TFA) at 0.3 mL/min with the following gradient: 5% acetonitrile (0-1 min), 5-95% acetonitrile (1-5 min), 95% acetonitrile (5-8 min), 95-5% acetonitrile (8-9 min), and 5% acetonitrile (9-10 min). Peaks with retention times of 5.4 min (free CPT) and 6.9 min (TT 1) were monitored.

[4] = system: human glioblastoma U87 MG cells; experiment: Antitumor efficacy study for systemic delivery, subcutaneous U87 MG tumor; assay type: in vivo, athymic nude mice; details: for mean tumor volume: three weeks after treatment
Experimental: A total of 2×10^6 human glioblastoma U87 MG cells were subcutaneously injected into the right shoulder of athymic nude mice (8-9 weeks old). The mice were used for the efficacy study after three to four weeks when the tumor had reached about 190-250 mm^3 in size. […]. Water insoluble free CPT was dissolved/suspended in a mixture of DMSO/ethanol/PEG-400/water (1:1:2:1). CPT (4.5 mg/kg) and irinotecan (60 mg/kg) were administered by intraperitoneal injection, while freshly prepared TT 1 solutions of various doses were administered intravenously by tail vein injection every 4 days for a total of three doses (days 1, 5, and 9). […]. Tumor volumes were measured and recorded every other day. The body weights were measured and recorded every day or every other day. The tumor volume was determined by measuring the tumor in two dimensions with calipers and using the formula “tumor volume=(length×width^2)/2”. Each animal was euthanized once the tumor volume reached the predetermined end point size of 2000 mm^3.

## CC[C@]1(OC(=O)OCCSSC[C@@H](NC(C)=O)C(=O)N[C@@H](CCCCNC(=O)[C@@H](CSSCCOC(=O)O[C@]2(CC)C(=O)OCc3c2cc2n(c3=O)Cc3cc4ccccc4nc3-2)NC(C)=O)C(=O)N[C@@H](CCCCNC(=O)CCOCCOCCOCCOCCOC)C(=O)N[C@@H](CCCCNC(=O)CCOCCOCCOCCOCCOC)C(N)=O)C(=O)OCc2c1cc1n(c2=O)Cc2cc3ccccc3nc2-1 [TT 1]
[1]
  IC50: 149 nM
[2]; after one week
  appearance of solution in cell medium: remained clear after one week; also recorded: remains clear after a week
[2]; cell medium with 10% FBS, 10 and 5 μM
  change of CD signal upon dilution: slight decreases in intensity; also recorded: slight decrease of CD signal at 389 nm
[2]; cell medium with 10% FBS, concentrations above 25 μM, two days
  dissociation of nanotubes upon dilution (CD): no obvious disassociation; also recorded: minimum dissociation or aggregation
[3]; 4.5 mg/kg i.v., 1 hour
  increase of plasma concentration versus free CPT: approximately 129 fold
  increase of tumor concentration versus free CPT: 8 fold
[3]; 4.5 mg/kg, 1 hour after injection
  TT 1 converted to free CPT in the tumor: 47%
[3]; 4.5 mg/kg, 8 hours
  TT 1 converted to free CPT in the tumor: 82%
[3]; 15 mg/kg, 1 hour after injection
  TT 1 converted to free CPT in the tumor: 58%
[3]; 15 mg/kg, 8 hours
  TT 1 converted to free CPT in the tumor: 96%
[3]; i.v.
  retention in the blood: up to 12 hours
[4]; TT 1 4.5 mg/kg (CPT equivalent) i.v. days 1, 5, 9
  median survival: 23 days
[4]; TT 1 4.5 mg/kg, up to 15 days
  tumor volume: 417 mm^3
[4]; TT 1 9 mg/kg
  survival of four out of five mice: up to 37 d
  mean tumor volume: 94 mm^3
[4]; TT 1 9 mg/kg i.v. days 1, 5, 9
  median survival: 37 days
[4]; TT 1 15 mg/kg
  survival of four out of five mice: ≤ 43 days
  mean tumor volume: 59 mm^3
[4]; TT 1 15 mg/kg i.v. days 1, 5, 9
  median survival: 43 days
